# Reference: the nanobody polyreactivity screen of Harvey et al. (2022)
# Assay: yeast display, Sf9 membrane polyspecificity reagent, FACS + sequencing; frameworks hold sequencing errors
# How it was run: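 Galactose induction of a Saccharomyces cerevisiae BJ5465 synthetic nanobody display library ran 36–48 hours. The cells were then stained for 1 hour at 4 °C with 10% biotinylated, detergent-solubilized Sf9 membrane reagent, pulled down on streptavidin microbeads and FACS-sorted into low and high (top ~1%) gates on expression and reagent-binding fluorescence. Labels for polyreactivity follow the gate of origin.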
row,Sequence,polyreactivity (PSR sort gate)
1,QVQLVESGGGLVQAGGSLRLSCAASGFTFDYYAMGWYRQAPGKERELVAAISRRGTSTYYADSVKGRFTISRDNAKNTVYLQMYSLKPEDTAVYYCNAVTSSFYNRDSDYWGQGTQVTVSS,high polyreactivity
2,QVQLVESGGGLVQAGGSLRLSCAASGFTFDYYAMGWYRQAPGKERELVATINGASSTNYADSVKGRFTISRDNAKNTVYLQMNSLKPEDTAVYYCNARYYGPDFVLAYDYWGQGTQVTESS,low polyreactivity
3,QVQLVESGGGLVQAGGSLRLSCAASGFTFDYYDLGWYRQAPGKERELVAGITYSGGRTRYADSVKGRFTISRDNAKNTVYLQMNSLKPEDTSVDYCAARPGYPYRMNYWGQGTQVTVSS,low polyreactivity
4,QVQLVESGGGLVQAGGSLRLSCAASGFTFDYYTMGWSRQAPGKERELVAAISWSGGSTYYADSVKGRFTISRDNAKNTVYLQMNSLKPEDTAVYYCAVDGPKTDDIENYWGQGTQVTVSS,low polyreactivity
5,QVQLVESGGGLVQAGGSLRLSCAASGFTFEKYAMGRYIQAPGKERELDASISWSGGRTRYADSVKGRFTISRDNAKNTVYLQMNSLKPEDTAVYYCAARPLFGWRGYNYWGQGTQVTVSS,high polyreactivity
6,QVQLVESGGGLVQAGGSLRLSCAASGFTFENYAMGWYRQAPGKERELVAAITRTGGITYYADSVKGRFTISRDNAKNTVYLQLNSLKPEDTAVYYCDADDTWTRPKNYDRYDYWGQGTQVTVSS,low polyreactivity
7,QVQLVESGGGLVQAGGSLRLSCAASGFTFFIYAMGWYSQAPGKEREFVAAITGSGGSTYYADSVKGRFTISRDNAKNTVYLQMNSLKPEDTAVYYCNTAGYDYYSTQAYDYWGQGTQVTVSS,high polyreactivity
8,QVQLVESGGGLVQAGGSLRLSCAASGFTFFLNAMGWYRQAPGKERELVAAINRSGGSTYYADSVKGRFTISRDNAKNTVYLQMNSLKPEDTAVYYCATYSFWHYAYDYWGQGTQVTVSS,low polyreactivity
9,QVQLVESGGGLVQAGGSLRLSCAASGFTFFPNAMGWYRQAPGKERELFAAISRSDDNTFYADSVKGRITISRDNAKNTVYLQMNSLKPEDTAVYYCDKSAVPWRYPRGYDYWGQGTQVTVSS,low polyreactivity
10,QVQLVESGGGLVQAGGSLRLSCAASGFTFFRYAMGWYRQAPGKERDLVAAITSGGGRTYYADSVKGRFTISRYNAKNTVYLQMNRLKPEDTAVYYCNAVRRVDMYYWGLGTQVTVSS,high polyreactivity
11,QVQLVESGGGLVQAGGSLRLSCAASGFTFFVNTMGWYRQAPGKERELVAAISYDGGSTTYADSVKGRFTISRDNAKNTVYLQMNSLKPEDTAVYYCAAEYWAPFDYGTNSGYEYWGQGTQVTVSS,low polyreactivity
12,QVQLVESGGGLVQAGGSLRLSCAASGFTFFWNAMGWSRQAPGKERELVAVITFRGGDTYYADSVKGRFTISRDNAKNTVYLQMNSLKPEDTAVYYCNADWQSYGYLWHSSLYYYWGQGTQVTVSS,low polyreactivity
13,QVQLVESGGGLVQAGGSLRLSCAASGFTFFYNAMGWYRPAPGKERELGAVITWNGGTTYYADSVKGRFTISRDNAKNTVYLQMNSLKTEDTAVYYCNADGLILYDYWGQGTQVTVSS,low polyreactivity
14,QVQLVESGGGLVQAGGSLRLSCAASGFTFFYYAIRWYRQAPGKEREVVAAISSNGGRTYYADSVKGRFTISRDNAKNTVYLQMYSLKPEDTAVYYCTALRYVVYFDDDYWGQGTQVTVSS,high polyreactivity
15,QVQLVESGGGLVQAGGSLRLSCAASGFTFFYYAMGWYRKAPGKERELVARISSSGGRTYYSDSVKGRFTISRDNAKNTVYLQMNSLKPEDTAVYYCNARYYYYYTRYDYWGQGTQVTVSS,high polyreactivity
16,QVQLVESGGGLVQAGGSLRLSCAASGFTFGANVMGWYRQAPGKERELVAAINTRGSRTYYADSVKGRFTISRDHAKNTVYLQMNRLKQEDTAVYYCAAALRKEYDYWGQGTQVTVSS,high polyreactivity
17,QVQLVESGGGLVQAGGSLRLSCAASGFTFGDYAMGWYRQAPGKERELVAAISWSGGRTSYADSVKGRFTISRDNAKNTVYLQMNSLKPEDTAVYYCAARYRYAYTSFPFYYWGQGTQVTVSS,high polyreactivity
18,QVQLVESGGGLVQAGGSLRLSCAASGFTFGDYAMGWYRQAPGKERELVAVISSGGSTYYADSVKGRFTISRDNAKNTVYLQMNSLKPEDTAVYYCAKYVFRVWYHVFEVDYWGQGTQVTVSS,low polyreactivity
19,QVQLVESGGGLVQAGGSLRLSCAASGFTFGENAMGWYRQAPGKERELVATISDSGDSTYYADSVKGRFTISRDNAKNTVYLQMNSLKPEDTAVYYCAAPLPHRGYDEGYWGQGTQVTVSS,low polyreactivity
20,QVQLVESGGGLVQAGGSLRLSCAASGFTFGEYAMGWYRQEPGKERELVATISSGVGTNYADSVKGRFTISRDNAKNTVYLQMNSLKPVDTAVYYCNARGRGSDVRVYVDEGDYWGQGTQVTVSS,low polyreactivity
21,QVQLVESGGGLVQAGGSLRLSCAASGFTFGFYAMGWYRQAPGKERELVASITTRGGSTRYADSVKGRFTISRDNAKNTVYLQMNSLKPEDTAVYYCAAQYSYVRYLKRGYGYWGQGTQVTVSS,high polyreactivity
22,QVQLVESGGGLVQAGGSLRLSCAASGFTFGGNAMGWYRQAPGKERELVAAISGRGGRTFYADSVKGRFTISRDNAKNTVYLQMNSLKPEDTGVYYCAAYYRYDVGAYDYWGQGTQVTVSS,high polyreactivity
23,QVQLVESGGGLVQAGGSLRLSCAASGFTFGGNPMGWYRQAPGKERELVAAIRRGGSTYYADSVKGRFTISRDNAKNTVYLQMNSLKPEDTAVYYCAAAIPGKYSNDDWGQGTQVTVSS,high polyreactivity
24,QVQLVESGGGLVQAGGSLRLSCAASGFTFGGYAMGWYRQAPGKERELVAAIDSSGGRTYYADSVKGRFTISRDNAKNTVYLQMNSLKPEDTAVYYCNAGNSGWWRYDYDYWGQGTQVTVSS,high polyreactivity
25,QVQLVESGGGLVQAGGSLRLSCAASGFTFGGYAMGWYRQAPGKERELVAAINSIGGTTYYADSVKGRFTISRDNAKNTVYLQMNRLKPEDTAVYYCAAGFYGYARHTWYNYWGQGTQVTVSS,high polyreactivity
26,QVQLVESGGGLVQAGGSLRLSCAASGFTFGGYAMGWYRQAPGKEREMVAGISGSGGRTYYADSVKGRFTISRDNAKNTVYLQMNSLKPEDTAVYYCGADRASPYLEYYWGLGTQVTVSS,low polyreactivity
27,QVQLVESGGGLVQAGGSLRLSCAASGFTFGHNDMGWYRQAPGKERELVASITQSGGSTYYADSVKGRFTISRDNAKNTVYLQMNSLKPEDTAVYYCAKDLYQSAFITKYDYWGQGTQVTVSS,low polyreactivity
28,QVQLVESGGGLVQAGGSLRLSCAASGFTFGHYARGWSRQAPGKERELVAAISRSGGTTSYADSVKGRFTISRDNAKNTVYLQMNSLKTEDTAVYYCNKDYIWARYGGGRDYWGQGTQVTVSS,low polyreactivity
29,QVQLVESGGGLVQAGGSLRLSCAASGFTFGINAMGWYRQAPGKERELVAAINQSGDRTYYADSVKGRFTISRDNAKNTVYLQMNSLKPEDTAVYYCAALSTYRTWYGYWGQGTQVTVSS,high polyreactivity
30,QVQLVESGGGLVQAGGSLRLSCAASGFTFGIYAMGWYRPATVKERELVAAISSSGGSTYYADSVKGRFTISRDNAKHTVYLQMNSLKPEDTAVYYCNAGALYRVYPYRGKLAYITYDSWGQGTQVTVSS,high polyreactivity
